For this series the following is noted: in vivo, iv. The method, then: • A. Animal Preparation - LA Vascular Thrombi. Fasting 25-30 kg Yorkshire swine were sedated with intramuscular Telazol (5-10 mg/kg) (commercially available from AVECO Co.) and commercially available Atropine (1 mg, Elkins-Sinn, Inc., Cherry Hill, NJ). Surital (200 mg) (commercially available from Abbott Laboratories) anaesthesia was administered intravenously. The animals were intubated and given inhalation anaesthesia of 1.5-2% halothane (commercially available from Abbott Laboratories) and O2 sufficient to obtain a deep level of anesthesia and physiologic arterial blood gases. Continuous electrocardiographic monitoring was instituted using alligator clip electrodes. A cut down in the neck region was conducted, and an 8 french catheter (USCI Co, Billerica, MA) was placed in the right common carotid artery for blood pressure and arterial blood gas monitoring as well as for blood sampling. The swine were placed in a right lateral decubitus position, and a lateral thoracotomy was performed to expose the heart. The incision was held open by a thoracotomy retractor. The pericardium was opened, and the left atrial appendage was isolated from the left atrium by a vascular cross- clamp. Rubber tipped forceps were used to gently crush the appendage. Five minutes later, ricinoleate (1 mg, ICN Pharmaceuticals, Costa Mesa, CA) and thrombin ([…], Johnson and Johnson Co., Arlington, Texas) were injected into the LAA (left atrial appendage) using a 27 Ga needle. The cross-clamp was removed 10 minutes later. One hour after the crush injury, Tc-99m-annexin V, prepared in accordance with Example I above, was administered as an intravenous bolus dose in an ear vein. The intravenous line was then flushed with saline. In 7 animals, I-125 labeled ovalbumin was administered as a non-specific control preparable, for example, by the procedure described by Fraker et al., Biochem. Biophys. Res. Commun. 80: 849-57, 1978). Briefly, I-125-radiolabeled ovalbumin was prepared by the Iodogen method, employing 600 µg ovalbumin (Sigma Chemical Co., St. Louis, Missouri) and NaI-125 (2mCi, 0.92 nmol). Image acquisition was performed as described below. At the end of the experimental procedure (generally about 150 minutes), the animals were sacrificed by an intravenous bolus dose of 80 mEq of KCl while the animals were still under general anaesthetic. A final blood sample was taken for well counting. The heart was rapidly excised, washed free of blood and dissected into samples for well counting. Additional samples of carotid artery, lung, liver, spleen, muscle and kidney were obtained in some animals. • B. Controls. Five different types of controls were used: open chest sham; closed chest sham; ovalbumin; indium platelets; and non-specific Tc-99m-labeled antibody. • 1. Open Chest Sham. […]

The results in this text go back to patent EP0765166B1, “RADIOLABELED ANNEXIN-GALACTOSE CONJUGATES” (NEORX CORPORATION, priority 1994, dated 1995).

For the substance “Tc-99m-annexin V: Annexin V radiolabeled with Tc-99m by using a diamide dimercaptide N2S2 chelate (Comparative Example I)”, the a entry was “a = 0.0389 %ID/g”, the b result was “b = 0.0300 %ID/g”, the t1/2 a entry is recorded as “t1/2 a = 9.6 min” and the t1/2 b entry is “t1/2 b = 46 min”.
